From the nanobody polyreactivity screen of Harvey et al. (2022)

Test: yeast display, Sf9 membrane polyspecificity reagent, FACS + sequencing; frameworks hold sequencing errors
In short: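 Galactose induction of a Saccharomyces cerevisiae BJ5465 synthetic nanobody display library ran 36–48 hours. The cells were then stained for 1 hour at 4 °C with 10% biotinylated, detergent-solubilized Sf9 membrane reagent, pulled down on streptavidin microbeads and FACS-sorted into low and high (top ~1%) gates on expression and reagent-binding fluorescence. Labels for polyreactivity follow the gate of origin.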

Row | Sequence | polyreactivity (PSR sort gate)
1 | QVQLVESGGGLVQAGGSLRLSCAASGSIFPYYTMGWYRQAPGKERELVAAISGSGGSTYYADSVKGRFTISRDNAKNTVYLQMNSLKPEDTAVYYCAAYRRTWFDYWGQGTQVNVSS | high polyreactivity
2 | QVQLVESGGGLVQAGGSLRLSCPDSGFIFYLYDMGWYRQAPGKEREVVAAITDRGGSTYYADSVKGRFTITRDNAKITVYLQLKSLKPEDTAVYSCAAASSAIDSSVTMDYWGQGTQVTVSS | low polyreactivity
3 | QVQLVESGGGLVQAGGSLRLSCAASGSIFAYNAMGWYRQAPGKERELVAAITRSGVNTYYADSVKGRFTISRDNAKNTVYLQMNRLKPEDTAVYYCNAVFWGLQKWPQ | low polyreactivity
4 | QVQLVESGGGIVQAGGSLRLSCAASGSTFTANAMGWYRQAPGKERELVAAISRSGGSTYYADSVKGRFTISRDNAKNTVYLQMNSLKPEDTAVYYCAAESPLFSPPDGEDYWGQGTQVTVSS | low polyreactivity
5 | QVQLVESGGGLVQAGGSLRLSCAASGRIFVRNAMGWYRQAPGKEREFVAAISRSGGSTYYAYSVKGRFTISRDNAKNSVYLQMNSLKPEDTAVYYCAADYPKTYTSKFNYWGQGTQVTVSS | high polyreactivity
6 | QVQLEESGGGLVQAVGIIRLSCGASVSIFDAYAIGWYRKAPGKETELVASITYGGRTNYADSVEGRFTISRDNAKNTVYLQMNSLKPEDTAVYYCAAGGGYYYRYHRYPRGYWGQGTQVTVTS | high polyreactivity
7 | QVQLVESGGGLVQAGGSLRLSCAASGFTISYYAMGWYRQAPWKERELVASISSSGGRTYYADSVKGRFTISRDNAKNTVYLQMNSLKPEDTAVYYCAAVGGRSTRGYYWGQGTQVTVSS | high polyreactivity
8 | QVQLVESGGGLVQAGGSLRLSCAASGLTFPYYVMGWYIQAPGKERELVAAIDDGGGSTYYADSVKGRFTISRDNAKNTVYLQMNSLKPEDTAVYYCAAQVDYLAHYGYWGQGTQVTVSS | low polyreactivity
9 | QVQLVESGAGLVQAGGSLRLSCAASGSTFCRYVAMGWYRQAPGKERELVAAISVSDGDTYYADSVKGRFTISRDNAKNTVYLQMNSLKPEDTAVYYCAAESFYGYDYWGQGTQVTVSS | high polyreactivity
10 | QVQLVESGGGLVQAGGSLRLSCAASGNNLCRNAMGWYRQAPGKERELVATISSVGTYYADSVKGRFTISRDNAKNNVYVQMNSLKPEDTAVYSCNARGRRSGYISGYDYWGQGTQVTVSS | high polyreactivity
11 | QVQLVESGGGLVQAGGSLRLSSAASGRIFNWYTMGWYRQSPGKERELVAAITSGGTTTYYADSVKGRFTISRDNAKNTVYLQMTSLKPEDTAVYYCAARRGGRRGYDYWGQGTQVTVSS | high polyreactivity
12 | QVQLVESGGGLVQAGGSLRLSCAASGRIFGYYAMGWSRQAPGKERELVASIRRGTRTNYADSVKGRFTISRDNAKNTVYLQMNSLKPEDTAVYYCAATRFQFTTTPWYDYWGQGTHVTVSS | high polyreactivity
13 | QVQLVESGGGLVQAGGSLRLSCAASGSIFNGYVMGWYRQAPGKERELVASINRGGTTNYADSVKGRFTISRDNAKNTVYLQMNSLKPEDTAVYYCAVDDDANSLGGYYVLFDYWGQGTQVTVSS | low polyreactivity
14 | QVQLVESGGGLVQAGGSLRLTCAASGFIFAHYAMGWYRQAPGKERELVAAISSRGGSTYYADSVKGRFTISRDNAKNTVYLQMNSLKPEDTAVYYCAKARHRPARGYEYWGQGTQVTVSS | high polyreactivity
15 | QVQLVESGGGLVQAGGSLRLSCAASGIIFDTYAMGWYRQAPGKERELVAAISRSGDTTYYADSVKGRFTISRDNAKNTVYLQMNSLKPEDTAVYYCYARQSRWDKYDYWGQGTQVTVSS | high polyreactivity
16 | QVQLVESGGGLVQAGGSLRLSCAASGIIFTDNAMGWYRQAPGKERELVATISWSTDNTYYADSVKGRFTISRDNAKNTVYLQMNSLKPEDTAVYYCAAEEYYAYWYQYDYWGQATQVTVSS | low polyreactivity
17 | QVQLVESGGGLVQAGGSLRLSCAASGSIFSPYAMGWYRQAPGKEREFVAAITWSDGGTYADSVKGRFTISRDNAKNTVYLQMNSRKPEDTAVYYCAAKLASYLVTGMDYWGQGTQVTVSS | low polyreactivity
18 | QGQLVESGGGLVQAGGSLRLSCAASGYTFYANAMGWYRQAPGNEREFVASITWSGGSTYYADSVKGRFTLSRDNAKNTVYLQMNSLKPEDTAVSDCAAESWFKYDYWGQGTQVTVSS | low polyreactivity
19 | QVQLVESGGGLVQAGGSLRLSCAASGITFRYYPMGWYRPAPGKQRELVAAISRTSGRTYYADSVKGRFTISRDNAKNTVYLQMNSLNPEDPAVYYCNKAWTPSLLYQSYYWGQGPQVTVSS | high polyreactivity
20 | QVQHVESGGGLVQAGGSLRLSIAASVFTFKGNAMGWYRQGPGKEMELVSTITQSGGSTYYADSVKGRFTISRDNAKNTVYLQMNSLKPEDTAVYFCNADPITLYYYSWYNYWGQGTQVTVSS | low polyreactivity
21 | QVQLVESGGGIVQAGGRLRLSCAASGFPSTLMLWDGIDRRLGKKGSWLPIISYNGGSTYYADSVKGRFTISRDNANNTVYLQMNSLKPVDTAVYYCYTAVGEYESDYWGQGTQVTVSS | low polyreactivity
22 | QVQLVESGGGLVQAGGSLRLSCAASGIIFTFYAMGWYRQAPGKERELVAAISYSSGSTYADSVKGRFTISRDNAKNTVYLQMNSLKPDDTAVYYCAVDLFPGHSYTYDYWGQGTQVTVSS | low polyreactivity

Row | Sequence | polyreactivity (PSR sort gate)
23 | QVQLVESGGGLVQAGGSLRLSCAASGRTLLQYTKGWYRQAPGKERELGAAISWSGGRTYYADSVKGRFTISRDNAKNTVYLQMNSLKPEDTAVYYCAARGLKSQYYGAKHEYGYWGLGTQVTVSS | high polyreactivity
24 | QVQLVESVGGLVQAGGSLRLSCAASGRTFDSNAMGWYRQAPGKERELVAAISYSGGSTYYADSVKGRFTISRDNAKNTVYLQMNSLKPEDTAVYYCNAGAVHKKPARDYWGQGTQVTVSS | low polyreactivity
25 | QVQLVESGGGLVQAGGSLRLSCAASGSIFVNNAMGWYRQAPGKERELVAAISSRSSRTFYADSVKGRFTISRDNAKNTVYLQMNSLKPEDTAVYYCAVKKRAPDGDYWGQGTQVTVSS | high polyreactivity
26 | QVQLVESGGGLVQAGGSLRLSCAASGITFYRYAMGWYRQAPGKERELVAGITRSGGSTYYADSVKGRFTISRDNAKNTVYLQMNSLKPEDTAVYYCAARIYSFRTKGGYGYWGQGTQVTVSS | high polyreactivity
27 | QVQLVESGGGLVQAGGSLRLSCAASGRIFGQNVMGWYIQAPGKERELVAAITSAGRTYYADSVKGRFTISRDIAKNTVYLQMKSLKPEDTAVYYCAAYVRRGFDWGQGTQVTVSS | high polyreactivity
28 | QVQLVESGGGLVQAGGSLRLSCAASGFIFKSYAMGWYRQAPGKETELVAAISRSGSSTYYADSVKGRFTISRDNAKNTVYLQMNSLKPEDTAVYYCAKKGYRFIHFGYDYWGQGTQVTVSS | high polyreactivity
29 | QVQLVESGGGLVQAGGSLRLSCAASGFTFAHNAMGWYRQATGKERELVAVISWSGGRTYYADSVKGRFTISRDNAMNTVYLQMNSLKPEDTAVYYCATRHSKFSYGYWGQGTQVTVSS | high polyreactivity
30 | QVQLHESGGGLVQAGGGLRLSCAASGSISSTGFMGWYRQAPGKEREPVAAIAQGTTTYYAESVKGRFTISRDNAINTVYLQMNSLRPEDTAVYYCAVFTDNRVAFLYWGQGTQVTVRS | low polyreactivity
31 | QVQLVESGGGLVQAGGSLRLSCAASGRIFTRYAMGWYRQAPGKERELVATISGSGSTNYADSVKGRFTISRDNAKNTVYLQMNSLKPEDTAVYYCNRRSRREYDYWGQGTQVTVSS | low polyreactivity
32 | QVQLVESGGGLFQAGGSLRLSCAANGSIFDYYAMGWYRQSPGKERELVAAITRSGVRTYYADSVKGRFTISRDNAKNTVYLQMNSMKPEDTAVYYCGAVYYPLSFDNDYWGQGTQVTVSS | high polyreactivity
33 | QVQLVESGGGLVQAGGSLRLSCAASGFTFRWYAMGWYRQAPGKERELVAAITSRGGTTYYADSVKGRFTISRDNAKNTVYLQMNSLKPEDTAVYYCAALNSGYIGMDYWGQGTQVTVSS | high polyreactivity
34 | QVQLVESGGGLVQAGGSLRLSCPASGSTFWYYDMGWSRQAPGKERELVAAISGSGGRTYYADSVKGRFTISRDNAKNTVYLQMNSLKPEDTAVYYCAADYYWSADFKYNDWGQGTQVTVAS | low polyreactivity
35 | QVQLVESGGGLVQAGGSLRLSCAASGRTFNGYAMGWYRQAPGKERELVASISWSGGRTYYADSVKGRFTISRDNAKNTVYLQMNSLIPEDTAVYYCNAYYYRVPRPWFDYWGQGTQVTVSS | high polyreactivity
36 | QVQLVESGGGLDQAGGSLRLSCAASGRTFAYYAIGWYRQAPGKERELVATITSYVGRTYYADSVKGRFTISRDNAKKSVYLQMNSLKPDDTAVYYSNARDWGRTRGGGYPWLYRYDYWGQGTQVTVSS | low polyreactivity
37 | QVQLVESGGGLVKAGGSLRLSCAASGITFRKYAMGWYRQAPGKERELVAAITAGGGRTFYADSVKGRFTISRDNAKNTVYLQMNSLKPEDTAVYYCNADLGIGYDYWGQGTQVTVSS | high polyreactivity
38 | QVQLVESGGGLVQAGGSLRLSCAASGSTFVSYAMGWYRQAPGKEREFVAAITWSGGSTYYADSVKGRFTISRDNAKNTVYLQMNSLKPEDTAVYDCAAATYRQQWHYYWGQGTQVTVSS | high polyreactivity
39 | HVQLVESGGGLVQAGGSLRLSCAASGFIFPENAMGWYRQAPGKERELVAAIRTGGSTYYADSVKGRFTISRDNAKNTVYLQMNSLKPEDTAVYYCAARFHYEKYSYWYFDEDYWGQGTQVTVSS | high polyreactivity
40 | QVQLVESGGGLVQAGGSLRLSCAASGSTFGAYAMGWYRQAPGKERELVAAISKRGGSTYYADSVKGRFTISLDNAKNTVYLQMNSLKPEDTAVYYCATDHFSPTYGYWGQGTQVTVSS | low polyreactivity
41 | QVQLVESGGGLVQAGGSLRLSCAASGRTFNYNAMGWYRQAPGKERELVAAISWGGGSTFYAVSEKGRFTISRDNAKNTVYLQMNTLKPEDTAVYYCAADRQYGNRGAYYYWGQGTQVTVSS | low polyreactivity
42 | QVQLVESGGGLVQAGGSLRLSCAASGRTFYSNAMGWYRQAPGKERELVASISYGGGTTHYADSVKGRFTISRDNAKNTVYLQINSVKPEDTAVYYCAADPEHQWESVTIGEYDYWGQGTQVTVSS | low polyreactivity
43 | QVQLVESGGGLVQAGGSLRLSCAASGRTFRKFAMGWYRQAPGKERELVAASSWSGGSTYYANSVKGRFTISRDNAKNTVYLQMNSLKPDDTAVYYCAAVPVHTGSLYWGFTTGYDYWGQGTQVTVSS | low polyreactivity
